In the supplement of paper PMC10126150:
± gives the standard deviation of the averaged measurements.

System: ATP
Assay: switch fluorescence ratio, 500 uM ATP over buffer (Cy3 cluster intensity, sum of 5 cycles each) (fold (ratio)); higher = stronger signal-on switching upon ATP binding; sequences stand for … in TCGTCGGCAGCGTCAGATGTGTATAAGAGACAGTTTTTTTTTTTTTTTTTTTTTTTTT…TC
Conditions: aptamer strand: ATP DNA aptamer (quencher-CACCTGGGGGAGTATTGCGGAGGAAGG + anchor), 100 nM annealed; ATP concentration: 500 uM
Procedure, shortened: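 Exposure to 500 uM ATP lasted 15 min at 22 °C before imaging, and a selection-buffer image was taken beforehand, for Cy3-labelled switching-strand clusters on a modified Illumina MiSeq flow-cell annealed to 100 nM quencher-labelled ATP aptamer. Five buffer/ATP cycles were run with NaOH stripping and re-annealing between them. The fluorescence ratio per cluster is summed target-cycle over summed buffer-cycle Cy3 intensity, averaged per switch-domain sequence. Clusters outside 100-1000 RFU were excluded.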

Row | Sequence | switch fluorescence ratio
1 | GTGGCTCTGC | 0.973 ± 0.077
2 | GTGGCTGGGG | 1 ± 0.029
3 | GTGGGAAAG | 0.983 ± 0.016
4 | GTGGGAACCT | 1.45 ± 0.29
5 | GTGGGAAGGG | 0.996 ± 0.017
6 | GTGGGAGCGG | 1.02 ± 0.042
7 | GTGGGAGGGT | 0.984 ± 0.041
8 | GTGGGAGGTG | 1 ± 0.046
9 | GTGGGATGGA | 0.978 ± 0.014
10 | GTGGGATTTG | 0.9697 ± 0.0069
11 | GTGGGGATTC | 0.971 ± 0.037
12 | GTGGGGCCGA | 1.01 ± 0.031
13 | GTGGGGCGGA | 1.01 ± 0.023
14 | GTGGGGGAAG | 0.993 ± 0.039
15 | GTGGGGGACT | 1.28 ± 0.5
16 | GTGGGGGAGC | 0.985 ± 0.029
17 | GTGGGGGCTT | 0.947 ± 0.021
18 | GTGGGGGGTG | 1.02 ± 0.057
19 | GTGGGGGTAA | 0.9692 ± 0.0039
20 | GTGGGGTACA | 0.996 ± 0.049
21 | GTGGGGTGTT | 0.985 ± 0.02
22 | GTGGGTCAGG | 1.01 ± 0.013
23 | GTGGGTGCAG | 1.03 ± 0.041
24 | GTGGGTGCGG | 0.979 ± 0.051
25 | GTGGGTTATC | 1.004 ± 0.007
26 | GTGGGTTGGG | 1.09 ± 0.058

Row | Sequence | switch fluorescence ratio
27 | GTGGTAAGTT | 0.942 ± 0.026
28 | GTGGTAGGGA | 0.98 ± 0.019
29 | GTGGTATGGT | 1.02 ± 0.025
30 | GTGGTCCGCG | 1.017 ± 0.0015
31 | GTGGTCTGTG | 0.972 ± 0.018
32 | GTGGTGATAG | 0.9652 ± 0.0041
33 | GTGGTGCACG | 0.9971 ± 0.0026
34 | GTGGTGGAAA | 1 ± 0.0029
35 | GTGGTTAGAA | 0.9841 ± 0.0025
36 | GTGGTTAGGG | 1.01 ± 0.041
37 | GTGGTTAGGT | 1 ± 0.034
38 | GTGGTTATCG | 1.02 ± 0.043
39 | GTGGTTCCCG | 1 ± 0.0099
40 | GTGGTTGGCA | 0.968 ± 0.033
41 | GTGGTTTGAC | 0.99 ± 0.013
42 | GTGGTTTGGC | 1.01 ± 0.09
43 | GTGGTTTTTG | 0.968 ± 0.025
44 | GTGTAAACGT | 1.04 ± 0.05
45 | GTGTAAGGG | 1.03 ± 0.031
46 | GTGTAATTGG | 1.018 ± 0.0058
47 | GTGTACTCGA | 1.04 ± 0.019
48 | GTGTAGATTA | 1.02 ± 0.014
49 | GTGTAGGGAT | 0.964 ± 0.015
50 | GTGTATAGAT | 1.01 ± 0.011
51 | GTGTATTTTT | 0.99 ± 0.024
52 | GTGTCAACGT | 0.978 ± 0.017

Row | Sequence | switch fluorescence ratio
53 | GTGTCAACTA | 0.987 ± 0.016
54 | GTGTCCGGTA | 0.983 ± 0.037
55 | GTGTCTGAGC | 0.966 ± 0.031
56 | GTGTGAACGG | 0.958 ± 0.018
57 | GTGTGACTCG | 1.03 ± 0.062
58 | GTGTGAGTTA | 0.992 ± 0.034
59 | GTGTGATTTT | 0.992 ± 0.028
60 | GTGTGCAACT | 1.02 ± 0.024
61 | GTGTGCTGTG | 1.01 ± 0.063
62 | GTGTGCTTAG | 1.027 ± 0.004
63 | GTGTGCTTTG | 0.998 ± 0.048
64 | GTGTGGAGGT | 0.964 ± 0.016
65 | GTGTGGATTC | 0.998 ± 0.013
66 | GTGTGGGCTG | 1.0001 ± 0.0002
67 | GTGTGTCTCT | 0.999 ± 0.016
68 | GTGTTAACTG | 0.984 ± 0.028
69 | GTGTTAGGGA | 1.01 ± 0.015
70 | GTGTTAGTCG | 1.02 ± 0.1
71 | GTGTTATGGG | 0.978 ± 0.037
72 | GTGTTATTGA | 0.97161 ± 0.00039
73 | GTGTTATTTT | 0.998 ± 0.053
74 | GTGTTCAACG | 0.994 ± 0.04
75 | GTGTTCGACG | 0.995 ± 0.056
76 | GTGTTCGAGT | 0.986 ± 0.034
77 | GTGTTCTTAT | 1.01 ± 0.011
78 | GTGTTGGGGG | 0.984 ± 0.039

Row | Sequence | switch fluorescence ratio
79 | GTGTTTAAAA | 0.995 ± 0.013
80 | GTGTTTAGCT | 0.992 ± 0.044
81 | GTGTTTGGGT | 0.978 ± 0.03
82 | GTGTTTGGTT | 1.01 ± 0.053
83 | GTGTTTTTGA | 1.01 ± 0.034
84 | GTTAAAAGGC | 0.986 ± 0.023
85 | GTTAACCGGA | 1.01 ± 0.012
86 | GTTAACGCGT | 1.02 ± 0.02
87 | GTTAATGTCG | 1.056 ± 0.0053
88 | GTTACAAGAG | 0.9955 ± 0.0077
89 | GTTACACTCA | 1.032 ± 0.002
90 | GTTACGAGTT | 0.977 ± 0.012
91 | GTTACTGGAA | 1.04 ± 0.02
92 | GTTACTGTTC | 0.98 ± 0.13
93 | GTTACTTGTA | 0.978 ± 0.025
94 | GTTAGAAATG | 1.01 ± 0.011
95 | GTTAGAAGGT | 1 ± 0.018
96 | GTTAGAAGTG | 0.9855 ± 0.006
97 | GTTAGACGGT | 1.02 ± 0.041
98 | GTTAGACTCA | 1.01 ± 0.014
99 | GTTAGAGAGG | 0.9779 ± 0.0078
100 | GTTAGAGCGG | 1.02 ± 0.031
101 | GTTAGCGGGG | 0.9823 ± 0.0048
102 | GTTAGGAATT | 0.985 ± 0.032
103 | GTTAGGAGTC | 0.992 ± 0.018
104 | GTTAGGCCCT | 1 ± 0.014

Row | Sequence | switch fluorescence ratio
105 | GTTAGGCGGT | 1.01 ± 0.014
106 | GTTAGGGGAT | 1 ± 0.011
107 | GTTAGGTATT | 0.93 ± 0.023
108 | GTTAGGTGTG | 1.11 ± 0.13
109 | GTTAGGTTGC | 1.01 ± 0.046
110 | GTTAGGTTTG | 0.997 ± 0.029
111 | GTTAGTAGGA | 1.02 ± 0.019
112 | GTTAGTTGGA | 0.964 ± 0.025
113 | GTTATAGTTT | 0.985 ± 0.014
114 | GTTATATTG | 1.01 ± 0.031
115 | GTTATCTTTC | 1.07 ± 0.029
116 | GTTATGGGGC | 0.966 ± 0.043
117 | GTTATTAATT | 0.983 ± 0.0036
118 | GTTATTATGG | 1.013 ± 0.0084
119 | GTTATTATTA | 0.993 ± 0.019
120 | GTTATTGAAG | 0.982 ± 0.022
121 | GTTATTGAGT | 1.007 ± 0.0089
122 | GTTATTGTGT | 0.999 ± 0.028
123 | GTTATTGTTC | 0.975 ± 0.016
124 | GTTCAAGGGC | 0.996 ± 0.032
125 | GTTCAGGGGA | 1.27 ± 0.41
126 | GTTCATGCAG | 0.993 ± 0.024
127 | GTTCATTGTT | 0.941 ± 0.017
128 | GTTCCTGTGG | 1.0156 ± 0.00081
129 | GTTCGAAGGG | 0.987 ± 0.013
130 | GTTCGTTAGC | 0.988 ± 0.004

Row | Sequence | switch fluorescence ratio
131 | GTTCTAAGTA | 0.957 ± 0.0039
132 | GTTCTCCTT | 1.07 ± 0.1
133 | GTTCTTTTTC | 0.978 ± 0.019
134 | GTTGAAGGCA | 1.01 ± 0.022
135 | GTTGAATCAT | 0.992 ± 0.017
136 | GTTGAATTTT | 1.01 ± 0.032
137 | GTTGACGGGT | 0.971 ± 0.025
138 | GTTGACGTTG | 0.991 ± 0.054
139 | GTTGAGGGTA | 1 ± 0.034
140 | GTTGAGTTGA | 1.01 ± 0.021
141 | GTTGAGTTTT | 0.962 ± 0.03
142 | GTTGATAACT | 1.009 ± 0.0012
143 | GTTGATAAGA | 0.982 ± 0.035
144 | GTTGATCAT | 0.983 ± 0.015
145 | GTTGATTTGG | 0.981 ± 0.015
146 | GTTGATTTTG | 0.981 ± 0.042
147 | GTTGCAAGAA | 1.13 ± 0.06
148 | GTTGCAATTT | 1.16 ± 0.13
149 | GTTGCAGGAA | 0.992 ± 0.04
150 | GTTGCAGTGT | 1.02 ± 0.037
151 | GTTGCGAAGG | 0.983 ± 0.02
152 | GTTGCGAGGT | 0.9872 ± 0.004
153 | GTTGGAAACT | 1.04 ± 0.017
